For one assay, the target named is T1, APC5009-AA.
T1 chain: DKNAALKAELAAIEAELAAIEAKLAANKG
Kind of assay: two-hybrid library CCmax.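 Also: natural log of median RNA to DNA barcode read ratio; higher means stronger binding.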

In another assay the target is T2, APC542-AA.
T2 chain: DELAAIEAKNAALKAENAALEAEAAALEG
The assay is described as follows: two-hybrid library CCmax.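 Also: natural log of median RNA to DNA barcode read ratio; higher means stronger binding.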 Conditions: mean of both orientations.

In another assay the target is T3, APC5531-AA.
T3 chain: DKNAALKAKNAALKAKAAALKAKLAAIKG
The assay is described as follows: two-hybrid library CCmax.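 Also: natural log of median RNA to DNA barcode read ratio; higher means stronger binding.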 Conditions: mean of both orientations.

Another assay addresses T4, APC6088-AA.
T4 chain: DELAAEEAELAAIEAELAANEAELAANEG
The assay is described as follows: two-hybrid library CCmax.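 Also: natural log of median RNA to DNA barcode read ratio; higher means stronger binding.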 As to conditions: mean of both orientations.

A further assay has as its target T5, APC7524-AA.
T5 chain: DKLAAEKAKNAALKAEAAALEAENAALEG
The assay is described as follows: two-hybrid library CCmax.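 Also: natural log of median RNA to DNA barcode read ratio; higher means stronger binding.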 As to conditions: mean of both orientations.

In a further assay the target is T6, APC8401-AA.
T6 chain: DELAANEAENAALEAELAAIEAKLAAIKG
Kind of assay: two-hybrid library CCmax.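 Also: natural log of median RNA to DNA barcode read ratio; higher means stronger binding.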 Conditions: mean of both orientations.

For the next assay, the target named is T7, APC8516-AA.
T7 chain: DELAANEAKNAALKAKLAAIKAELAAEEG
The assay is described as follows: two-hybrid library CCmax. As to conditions: mean of both orientations.

The target in the next assay is T8, APC9141-AA.
T8 chain: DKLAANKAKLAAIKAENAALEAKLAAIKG
Kind of assay: two-hybrid library CCmax. As to conditions: mean of both orientations.

In a further assay the target is T9, APC9182-AA.
T9 chain: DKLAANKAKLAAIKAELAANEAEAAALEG
Kind of assay: two-hybrid library CCmax. Conditions: mean of both orientations.

The next assay concerns the target T10, APC9291-AA.
T10 chain: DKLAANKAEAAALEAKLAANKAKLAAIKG
The assay is described as follows: two-hybrid library CCmax. Conditions: mean of both orientations.

A further assay has as its target T11, APC9806-AA.
T11 chain: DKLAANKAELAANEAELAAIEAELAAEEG
Kind of assay: two-hybrid library CCmax. Conditions: mean of both orientations.

The target in another assay is T12, 4H492-bH.
T12 chain: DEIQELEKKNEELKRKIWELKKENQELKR
The assay is described as follows: two-hybrid library CCNG1.

Another assay addresses T13, 4H741-bH.
T13 chain: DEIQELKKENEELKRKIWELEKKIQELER
Kind of assay: two-hybrid library CCNG1.

Another assay has as its target T14, 4H3414-AA.
T14 chain: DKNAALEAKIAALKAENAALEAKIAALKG
The assay is described as follows: two-hybrid library CCmax.

Another assay concerns the target T15, 4H3595-AA.
T15 chain: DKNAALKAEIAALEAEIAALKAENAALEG
Kind of assay: two-hybrid library CCmax. Conditions: mean of both orientations.

Another assay concerns the target T16, 4H3629-AA.
T16 chain: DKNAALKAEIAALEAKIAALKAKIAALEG
Kind of assay: two-hybrid library CCmax. As to conditions: mean of both orientations.

In a further assay the target is T17, 4H3782-AA.
T17 chain: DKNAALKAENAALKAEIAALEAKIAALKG
Kind of assay: two-hybrid library CCmax. As to conditions: mean of both orientations.

The target in the next assay is T18, 4H380-AA.
T18 chain: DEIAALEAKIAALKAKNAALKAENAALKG
The assay is described as follows: two-hybrid library CCmax. As to conditions: mean of both orientations.

The next assay deals with T19, 4H3939-AA.
T19 chain: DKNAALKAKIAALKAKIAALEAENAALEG
Kind of assay: two-hybrid library CCmax. Conditions: mean of both orientations.

The next assay concerns the target T20, 4H3969-AA.
T20 chain: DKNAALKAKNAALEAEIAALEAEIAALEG
Kind of assay: two-hybrid library CCmax.

The target of the next assay is T21, 4H446-AA.
T21 chain: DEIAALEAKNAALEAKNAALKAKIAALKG
Kind of assay: two-hybrid library CCmax. As to conditions: mean of both orientations.

A further assay has as its target T22, 4H464-AA.
T22 chain: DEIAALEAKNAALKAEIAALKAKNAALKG
The assay is described as follows: two-hybrid library CCmax. As to conditions: mean of both orientations.

The target of a further assay is T23, 4H483-AA.
T23 chain: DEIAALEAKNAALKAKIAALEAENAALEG
The assay is described as follows: two-hybrid library CCmax. Conditions: mean of both orientations.

The next assay concerns the target T24, 4H63-AA.
T24 chain: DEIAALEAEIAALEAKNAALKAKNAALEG
The assay is described as follows: two-hybrid library CCmax. As to conditions: mean of both orientations.

Another assay concerns the target T25, 4H341-AA.
T25 chain: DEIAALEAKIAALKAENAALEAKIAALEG
Kind of assay: two-hybrid library CCmax.

A further assay has as its target T26, 4H3449-AA.
T26 chain: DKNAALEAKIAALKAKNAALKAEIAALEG
Kind of assay: two-hybrid library CCmax. As to conditions: mean of both orientations.

The target of the next assay is T27, 4H3619-AA.
T27 chain: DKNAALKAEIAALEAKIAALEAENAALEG
Kind of assay: two-hybrid library CCmax. Conditions: mean of both orientations.

For the next assay, the target named is T28, 4H3777-AA.
T28 chain: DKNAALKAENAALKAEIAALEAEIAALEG
The assay is described as follows: two-hybrid library CCmax. Conditions: mean of both orientations.

In a further assay the target is T29, 4H3915-AA.
T29 chain: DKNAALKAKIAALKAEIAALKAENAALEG
Kind of assay: two-hybrid library CCmax. As to conditions: mean of both orientations.

The target in a further assay is T30, 4H3974-AA.
T30 chain: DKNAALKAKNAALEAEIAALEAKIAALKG
The assay is described as follows: two-hybrid library CCmax. As to conditions: mean of both orientations.

For a further assay, the target named is T31, 4H432-AA.
T31 chain: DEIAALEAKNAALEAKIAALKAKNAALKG
Kind of assay: two-hybrid library CCmax. Conditions: mean of both orientations.

Read-outs that look alike come from different tables or passages of the source.

This passage reports interaction score results from publication PMC10397247.

B1: APC5009-AA (peptide)
chain: DKNAALKAELAAIEAELAAIEAKLAANKG
As to B1, the interaction score with APC5009-AA was -1.19; in the assay with APC542-AA, -1.44; with APC5531-AA, -0.726; with APC6088-AA it was -1.37; with APC7524-AA, -1.47; with APC8401-AA, -1.26. The interaction score is -1.31 with APC8516-AA; -1.42 in the assay with APC9141-AA; -1.29 with APC9182-AA; -1.51 with APC9291-AA; -1.58 with APC9806-AA.

B2: 4H492-bH (peptide)
chain: DEIQELEKKNEELKRKIWELKKENQELKR
In the case of B2, the interaction score in the assay with 4H492-bH is 0.6; in the assay with 4H741-bH, -0.317.

B3: 4H3414-AA (peptide)
chain: DKNAALEAKIAALKAENAALEAKIAALKG
As to B3, the interaction score with 4H3414-AA was -0.215; in the assay with 4H3595-AA it was -1.09; with 4H3629-AA it was 0.922; with 4H3782-AA it was -1.23; with 4H380-AA, -0.842; with 4H3939-AA, -1.42. Also, the interaction score with 4H3969-AA (mean of both orientations) is -1.31; with 4H446-AA, -0.818; in the assay with 4H464-AA, 1.47; with 4H483-AA it was 0.796; with 4H63-AA, -0.187.

B4: 4H341-AA (peptide)
chain: DEIAALEAKIAALKAENAALEAKIAALEG
As for B4, the interaction score with 4H341-AA is 1.84; with 4H3414-AA (mean of both orientations) it was 0.22; with 4H3449-AA, 0.461; in the assay with 4H3595-AA it was -1.29; in the assay with 4H3619-AA, -1.22; in the assay with 4H3629-AA, 2.2. In addition, the interaction score is -1.17 with 4H3777-AA; 0.558 in the assay with 4H3782-AA; -1.07 in the assay with 4H380-AA; -1.31 in the assay with 4H3915-AA; -1.29 with 4H3939-AA; 0.0125 with 4H3969-AA. The interaction score in the assay with 4H3974-AA is 0.589; with 4H432-AA it was -1.21; with 4H446-AA, 0.795; with 4H464-AA, 0.352; with 4H483-AA, 0.738; with 4H63-AA it was 1.74.
